Values quoted from earlier work as cited in PMC8359934.
pKd: −log10 of the molar value.

Target: sNUCB1 (Homo sapiens) (UniProt Q02818)
Assay: SEC-MALS

sNUCB1 (from UniProt Q02818)
pKd: 6.59
